Source: article PMC7060837

Target: taxol-stabilized brain microtubules (UniProt P02550)
Sequence of UniProt P02550 (P02550 whole entry, looked up): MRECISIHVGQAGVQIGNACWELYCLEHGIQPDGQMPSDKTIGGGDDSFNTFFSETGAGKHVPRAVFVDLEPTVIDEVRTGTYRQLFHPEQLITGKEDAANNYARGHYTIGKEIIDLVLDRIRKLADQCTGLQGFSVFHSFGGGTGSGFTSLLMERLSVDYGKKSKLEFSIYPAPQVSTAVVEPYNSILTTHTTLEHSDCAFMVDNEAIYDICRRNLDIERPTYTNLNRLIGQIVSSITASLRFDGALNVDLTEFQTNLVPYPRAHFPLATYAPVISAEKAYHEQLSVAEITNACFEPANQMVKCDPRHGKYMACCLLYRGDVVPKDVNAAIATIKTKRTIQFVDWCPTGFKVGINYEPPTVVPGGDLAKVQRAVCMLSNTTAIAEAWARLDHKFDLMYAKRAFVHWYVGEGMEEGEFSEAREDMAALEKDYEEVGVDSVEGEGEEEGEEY

B1: katanin MEI-1/MEI-2 mutant K119K120R128R130K134AAAAA (complex)
chain 1: MNGDVQSVIRGYLERAQVAKTMSDAGRWNEAGDLLRQLMTDVKSCKISASNRDEHDARNTFLRALEANLKLVQQNVRDEDDLHEAMTRQSGSPEPPADPDVWSKPSPPLPSSSKFGATAAGVGAAGPAPAEISASTSSMSTNPADVKPANPTQGILPQNSAGDSFDASAYDAYIVQAVRGTMATNTENTMSLDDIIGMHDVKQVLHEAVTLPLLVPEFFQGLRSPWKAMVLAGPPGTGKTLIARAIASESSSTFFTVSSTDLSSKWRGDSEKIVRLLFELARFYAPSIIFIDEIDTLGGQRGNSGEHEASRRVKSEFLVQMDGSQNKFDSRRVFVLAATNIPWELDEALRRRFEKRIFIPLPDIDARKKLIEKSMEGTPKSDEINYDDLAARTEGFSGADVVSLCRTAAINVLRRYDTKSLRGGELTAAMESLKAELVRNIDFEAALQAVSPSAGPDTMLKCKEWCDSFGAM
chain 2: MSGLDDRKKLTHAKNRKPLNDIPKSAENRPNTRSTSSRRGAEKDVPITFIGSSRTVKADLPEFTNTRSRRPLHSESKKELSRNPVSRGEEHSSSLPKSSPESSVSVMSSNASLWSACTEEVNKIGVCAKRESRNLRVYKMKSFTSNMEQILSNDNQLAPTVIRILNSRNSWCLNSCHACLTFIMENITSDNYGKRSACLKALASITNSLLDTIIGFASTKTRRIGVDVVAEERAAKATECIHNFRKIVKNRDKIYKQIDQETIYKLDAILERLKKVSSHK
For B1, which microtubule stimulated ATPase, reduction against wild type is on record?
The microtubule stimulated ATPase, reduction against wild type was 50%.
